{"source": "FireProtDB (doi:10.1074/jbc.273.1.167)", "proteins": {"B1": {"name": "Tubulin--tyrosine ligase wild type, P38584 (protein)", "chain": "MYTFVVRDENSSVYAEVSRLLLATGHWKRLRRDNPRFNLMLGERNRLPFGRLGHEPGLMQLVNYYRGADKLCRKASLVKLIKTSPELAESCTWFPESYVIYPTNLKTPVAPAQDGIHPPLHSSRTDEREFFLASYNRKKEEGEGNVWIAKSSAGAKGEGILISSDATELLDFIDNQGQVHVIQKYLERPLLLEPGHRKFDIRSWVLVDHQFNIYLYREGVLRTASEPYHMDNFQDKTCHLTNHCIQKEYSKNYGKYEEGNEMFFEAFNRYLTSALNITLESSILLQIKHIIRSCLMSVEPAISTKHLPYQSFQLFGFDFMVDEELKVWLIEVNGAPACAQKLYAELCQGIVDIAIASVFPPPDAEQQPPQPATFIKL"}}, "details": "Bos taurus, pH 7, Thermal, DSC, phosphate 10 mM, transition: 3, reversible: no, whole UniProt chain shown", "note": "“And” between values parts separate entries of the source, which are not always exact repeats. Identical values can stand only once."}
{"protein": "B1", "values": [{"measurement": "Tm", "setting": "Mg++ 30 nM", "value": 51.1, "unit": "°C"}, {"measurement": "unfolding enthalpy (calorimetric)", "setting": "Mg++ 30 nM", "value": 160, "unit": "kcal/mol"}, {"measurement": "unfolding enthalpy (calorimetric)", "setting": "Mg++ 35 nM", "value": "38 kcal/mol and 84 kcal/mol"}, {"measurement": "unfolding enthalpy (calorimetric)", "setting": "Mg++ 40 nM", "value": "31 kcal/mol and 84 kcal/mol"}, {"measurement": "Tm", "setting": "Mg++ 182 nM", "value": 49.9, "unit": "°C"}, {"measurement": "unfolding enthalpy (calorimetric)", "setting": "Mg++ 182 nM", "value": 158, "unit": "kcal/mol"}, {"measurement": "Tm", "setting": "Mg++ 2.3 micro M", "value": 54.6, "unit": "°C"}, {"measurement": "unfolding enthalpy (calorimetric)", "setting": "Mg++ 2.3 micro M", "value": 173, "unit": "kcal/mol"}, {"measurement": "Tm", "setting": "Mg++ 4.5 micro M", "value": 54.8, "unit": "°C"}, {"measurement": "unfolding enthalpy (calorimetric)", "setting": "Mg++ 4.5 micro M", "value": 173, "unit": "kcal/mol"}, {"measurement": "Tm", "setting": "Mg++ 160 micro M", "value": 55.8, "unit": "°C"}, {"measurement": "unfolding enthalpy (calorimetric)", "setting": "Mg++ 160 micro M", "value": 150, "unit": "kcal/mol"}, {"measurement": "Tm", "setting": "Mg++ 280 micro M", "value": "55.6 °C and 54.2 °C"}, {"measurement": "unfolding enthalpy (calorimetric)", "setting": "Mg++ 280 micro M", "value": "186 kcal/mol and 200 kcal/mol"}]}
